According to patent US20230265151A1, “GIP/GLP1 CO-AGONIST COMPOUNDS” (priority 2020, published 2023):
Residue numbers refer to the chain shown, from its start.

T1: human GIP receptor (human, UniProt P48546 22-466)
T1 sequence (looked up): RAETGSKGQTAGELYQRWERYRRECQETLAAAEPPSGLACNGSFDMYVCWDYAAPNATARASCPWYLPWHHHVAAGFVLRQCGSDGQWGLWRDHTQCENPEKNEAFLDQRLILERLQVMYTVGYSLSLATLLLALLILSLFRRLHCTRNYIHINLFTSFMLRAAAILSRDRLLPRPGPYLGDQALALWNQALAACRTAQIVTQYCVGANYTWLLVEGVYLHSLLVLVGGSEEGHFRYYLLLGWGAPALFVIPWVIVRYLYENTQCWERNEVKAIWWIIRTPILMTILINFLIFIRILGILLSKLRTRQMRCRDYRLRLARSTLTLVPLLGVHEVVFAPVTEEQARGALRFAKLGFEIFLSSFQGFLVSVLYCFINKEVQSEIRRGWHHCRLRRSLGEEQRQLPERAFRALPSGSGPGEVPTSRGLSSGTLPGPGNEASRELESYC

T2: human GIP receptor (human, UniProt P48546 22-466)
T2 construct: whole, on cells; also called hGIPR; human glucose-dependent insulinotropic polypeptide receptor
T2 sequence (looked up): T1 sequence (looked up)

B1: Example 18 (peptide)
peptide: YXEGTXTSDXSIXLDXKAQXEFIXXLIEGKPSSGAPPPS
modifications: Aib2, αMeF(2F)6, 4Pal10, αMeL13, Orn16, Aib20, D-Glu24, αMeY25, K17 and K30: K(AEEA2-(γ-Glu)-CO-(CH2)12-CO2H), C-terminal NH2
B2: Example 149 (peptide)
peptide: B1 peptide with K30G, P31K
modifications: Aib2, αMeF(2F)6, 4Pal10, αMeL13, Orn16, Orn20, D-Glu24, αMeY25, K17 and K31: K(AEEA2-(γ-Glu)-CO-(CH2)12-CO2H), C-terminal NH2
B3: Example 17 (peptide)
peptide: B1 peptide with E28K, K30G
modifications: Aib2, αMeF(2F)6, 4Pal10, αMeL13, Orn16, Aib20, D-Glu24, αMeY25, K17 and K28: K(AEEA2-(γ-Glu)-CO-(CH2)12-CO2H), C-terminal NH2
B4: Example 150 (peptide)
peptide: B1 peptide with E21X, K30G, P31K
modifications: Aib2, αMeF(2F)6, 4Pal10, αMeL13, Orn16, Aib20, Orn21, D-Glu24, αMeY25, K17 and K31: K(AEEA2-(γ-Glu)-CO-(CH2)12-CO2H), C-terminal NH2
B5: Example 147 (peptide)
peptide: B1 peptide with F22X, K30G, P31K
modifications: Aib2, αMeF(2F)6, 4Pal10, αMeL13, Orn16, Aib20, Bzt22, D-Glu24, αMeY25, K17 and K31: K(AEEA2-(γ-Glu)-CO-(CH2)12-CO2H), C-terminal NH2
B6: Example 148 (peptide)
peptide: B1 peptide with F22X, K30G, P31K
modifications: Aib2, αMeF(2F)6, 4Pal10, αMeL13, Orn16, Aib20, ChA22, D-Glu24, αMeY25, K17 and K31: K(AEEA2-(γ-Glu)-CO-(CH2)12-CO2H), C-terminal NH2
B7: Example 144 (peptide)
peptide: B1 peptide with K30G, P31K
modifications: Aib2, αMeF(2F)6, 4TAA10, αMeL13, Orn16, Aib20, D-Glu24, αMeY25, K17 and K31: K(AEEA2-(γ-Glu)-CO-(CH2)12-CO2H), C-terminal NH2
B8: Example 146 (peptide)
peptide: B1 peptide with K30G, P31K
modifications: Aib2, αMeF(2F)6, 3TA10, αMeL13, Orn16, Aib20, D-Glu24, αMeY25, K17 and K31: K(AEEA2-(γ-Glu)-CO-(CH2)12-CO2H), C-terminal NH2
B9: Example 145 (peptide)
peptide: B1 peptide with K30G, P31K
modifications: Aib2, αMeF(2F)6, 2TA10, αMeL13, Orn16, Aib20, D-Glu24, αMeY25, K17 and K31: K(AEEA2-(γ-Glu)-CO-(CH2)12-CO2H), C-terminal NH2
B10: Example 154 (peptide)
peptide: B1 peptide with K30G, P31K, S39X
modifications: Aib2, αMeF(2F)6, 4Pal10, αMeL13, Orn16, Aib20, D-Glu24, αMeY25, Orn39, K17 and K31: K(AEEA2-(γ-Glu)-CO-(CH2)12-CO2H), C-terminal NH2
B11: Example 15 (peptide)
peptide: B1 peptide with E21K, K30G
modifications: Aib2, αMeF(2F)6, 4Pal10, αMeL13, Orn16, Aib20, D-Glu24, αMeY25, K17 and K21: K(AEEA2-(γ-Glu)-CO-(CH2)12-CO2H), C-terminal NH2
B12: Example 152 (peptide)
peptide: B1 peptide with K30X, P31K
modifications: Aib2, αMeF(2F)6, 4Pal10, αMeL13, Orn16, Aib20, D-Glu24, αMeY25, Orn30, K17 and K31: K(AEEA2-(γ-Glu)-CO-(CH2)12-CO2H), C-terminal NH2
B13: Example 16 (peptide)
peptide: B1 peptide with X24K, K30G
modifications: Aib2, αMeF(2F)6, 4Pal10, αMeL13, Orn16, Aib20, αMeY25, K17 and K24: K(AEEA2-(γ-Glu)-CO-(CH2)12-CO2H), C-terminal NH2
B14: Example 143 (peptide)
peptide: B1 peptide with K30G, P31K
modifications: Aib2, αMeF(2F)6, 2FA10, αMeL13, Orn16, Aib20, D-Glu24, αMeY25, K17 and K31: K(AEEA2-(γ-Glu)-CO-(CH2)12-CO2H), C-terminal NH2
B15: Example 151 (peptide)
peptide: B1 peptide with E28X, K30G, P31K
modifications: Aib2, αMeF(2F)6, 4Pal10, αMeL13, Orn16, Aib20, D-Glu24, αMeY25, Orn28, K17 and K31: K(AEEA2-(γ-Glu)-CO-(CH2)12-CO2H), C-terminal NH2
B16: Example 141 (peptide)
peptide: YXEGTXTSDXSIXLDXKAQXEFIXXLIEGGPSSGAPPPSK
modifications: Aib2, αMeF(2F)6, 4Pal10, αMeL13, Orn16, Aib20, D-Glu24, αMeY25, K17 and K40: K(AEEA2-(γ-Glu)-CO-(CH2)10-CH3), C-terminal NH2
B17: Y-Aib-EGT-αMeF(2F)-TSD-4Pal-SI-αMeL-LD-Orn-K((2-[2-(2-Amino-ethoxy)-ethoxy]-acetyl)2-(γ-Glu)-(10-(4-carboxyphenoxy)decanoyl))AQ-Aib-EFI-(D-Glu)-αMeY-LIEGGK((2-[ … (peptide)
peptide: B1 peptide with K30G, P31K
modifications: Aib2, αMeF(2F)6, 4Pal10, αMeL13, Orn16, K17(Z1), Aib20, D-Glu24, αMeY25, K31(Z1), C-term NH2; Z1=AEEA2-(γ-Glu)-(10-(4-carboxyphenoxy)decanoyl)

Target: T1, human GIP receptor
Test: cell-based or functional assay

Compared with B1, B2 is 3.5-fold higher in “EC50, cAMP” value: 0.0226 nM for the first, 0.0791 nM for the second.

Compared with B3, B4 is 2.1-fold higher in “EC50, cAMP” value: 0.0129 nM for the first, 0.0268 nM for the second.

B5 and B6 are within 1.5-fold of each other in “EC50, cAMP” value: 0.0229 nM for the first, 0.0209 nM for the second.

B7 and B8 are within 1.5-fold of each other in “EC50, cAMP” value: 0.0193 nM for the first, 0.0198 nM for the second.

B9 and B10 are within 1.5-fold of each other in “EC50, cAMP” value: 0.0286 nM for the first, 0.0299 nM for the second.

Going from B11 to B12, the “EC50, cAMP” value rises from 0.0133 nM to 0.0416 nM (3.1-fold).

Compared with B13, B14 is 1.9-fold higher in “EC50, cAMP” value: 0.0113 nM for the first, 0.022 nM for the second.

Going from B15 to B16, the “EC50, cAMP” value falls from 0.0197 nM to 0.00723 nM (2.7-fold).

Compared with B1, B7 is lower in “Emax, cAMP” value: 97.1% for the first, 90% for the second.

First: B8
Second: B9
The “Emax, cAMP” value of the first is higher: 76.5% for the first, 74.8% for the second.

First: B10
Second: B12
The “Emax, cAMP” value of the first is lower: 96.6% for the first, 97.9% for the second.

With B16 the “Emax, cAMP” value was 98.8%.

Target: human glucagon receptor (human, UniProt P47871 26-477)
Test: cell-based or functional assay

B1 and B2 cannot be ordered by “EC50, cAMP” value: greater than 9950 nM for the first, greater than 9950 nM for the second.

B3 and B4 cannot be ordered by “EC50, cAMP” value: greater than 9950 nM for the first, greater than 9950 nM for the second.

B5 and B6 cannot be ordered by “EC50, cAMP” value: greater than 9950 nM for the first, greater than 9950 nM for the second.

B7 and B8 cannot be ordered by “EC50, cAMP” value: greater than 9950 nM for the first, greater than 9950 nM for the second.

B9 and B10 cannot be ordered by “EC50, cAMP” value: greater than 9950 nM for the first, greater than 9950 nM for the second.

B11 and B12 cannot be ordered by “EC50, cAMP” value: greater than 9950 nM for the first, greater than 9950 nM for the second.

B13 and B14 cannot be ordered by “EC50, cAMP” value: greater than 9950 nM for the first, greater than 9950 nM for the second.

B15 and B16 cannot be ordered by “EC50, cAMP” value: greater than 9950 nM for the first, greater than 9950 nM for the second.

Target: human GLP-1 receptor (human, UniProt P43220 24-463)
Test: cell-based or functional assay

Going from B1 to B2, the “EC50, cAMP” value falls from 5.06 nM to 1.5 nM (3.4-fold).

Going from B3 to B4, the “EC50, cAMP” value falls from 1.57 nM to 0.455 nM (3.5-fold).

Compared with B5, B6 is 5.2-fold higher in “EC50, cAMP” value: 0.338 nM for the first, 1.77 nM for the second.

Going from B7 to B8, the “EC50, cAMP” value falls from 3.47 nM to 0.688 nM (5-fold).

Going from B9 to B10, the “EC50, cAMP” value rises from 0.555 nM to 1.69 nM (3-fold).

Compared with B11, B12 is 3.9-fold higher in “EC50, cAMP” value: 0.995 nM for the first, 3.91 nM for the second.

Going from B13 to B14, the “EC50, cAMP” value rises from 0.245 nM to 0.512 nM (2.1-fold).

Going from B15 to B16, the “EC50, cAMP” value falls from 0.546 nM to 0.0693 nM (7.9-fold).

Compared with B5, B6 is higher in “Emax, cAMP” value: 93.5% for the first, 94.5% for the second.

Target: T2, human GIP receptor
Test: SPA competition vs [125I]-GIP, hGIPR membranes
Experimental: The binding buffer contains 25 mM HEPES, pH 7.4, 2.5 mM CaCl₂, 1 mM MgCl₂, 0.1% (w/v) bacitracin, 0.003% (w/v) TWEEN®-20, and Roche Complete™ Protease Inhibitors without EDTA. […] Plates are sealed and mixed on a plate shaker (setting 6) for 1 minute and read with a PerkinElmer Trilux MicroBeta® scintillation counter after 2.5 to 12 hours of incubation/settling time at room temperature.
Data are analyzed using four-parameter (curve maximum, curve minimum, IC₅₀, Hill slope) nonlinear regression routines (Genedata Screener, version 12.0.4, Genedata AG, Basal, Switzerland). […] Values for Kᵢ are reported as the geometric mean, with error expressed as the standard error of the mean (SEM) and n is equal to the number of independent replicates (determined in assays performed on different days). Geometric Means are calculated as follows: […]

Work on B17 yielded a Ki of 0.0446 nM.
